Measurements reported in patent US20220273711A1 (published 2022).

biological target: biotinylated Bcl2 (wild-type non-optimized Bcl2 with C-terminal Avi and 6xHis-tags) (UniProt P10415 1-207, enzymatically biotinylated using BirA (Avi tag)); experiment: BLI; midpoint; Cage plus Key_EGFR, co-localization-independent
Sequence (P10415 1-207): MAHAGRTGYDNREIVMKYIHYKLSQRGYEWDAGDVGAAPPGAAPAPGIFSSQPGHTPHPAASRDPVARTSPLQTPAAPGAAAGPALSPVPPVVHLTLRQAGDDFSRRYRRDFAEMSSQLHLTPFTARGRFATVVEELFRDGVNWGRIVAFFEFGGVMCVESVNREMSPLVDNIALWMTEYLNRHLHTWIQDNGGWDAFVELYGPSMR

| EC50 | Binder |
| --- | --- |
| 23 nM | Her2_Cage_L209A (Tuned Cage targeted to Her2 by DARPin (L209A)) (designed binder) MGSHHHHHHGSGSENLYFQGSGGSDLGKKLLEAARAGQDDEVRILMANGADVNAKDEYGLTPLYLATAHGHLEIVEVLLKNGADVNAVDAIGFTPLHLAAFIGHLEIAEVLLKHGADVNAQDKFGKTAFDISIGNGNEDLAEILQKLNSGSGSGKPGQASGSELARKLLEASTKLQRLNIRLAEALLEAIARLQELNLELVYLAVELTDPKRIRDEIKEVKDKSKEIIRRAEKEIDDAAKESEKILEEAREAISGSGSELAKLLLKAIAETQDLNLRAAKAFLEAAAKLQELNIRAVELLVKLTDPATIREALEHAKRRSKEIIDEAERAIRAAKRESERIIEEARRLIEKGSGSGSELARELLRAHAQAQRLNLELLRELLRALAQLQELNLDLLRLASELTDEIWIAQELRRIGDEFNAYYADAERLIREAAAASEKISREAERLIR |
| 8.7 nM | Her2_Cage_I287S (Tuned Cage targeted to Her2 by DARPin (I287S)) (designed binder) MGSHHHHHHGSGSENLYFQGSGGSDLGKKLLEAARAGQDDEVRILMANGADVNAKDEYGLTPLYLATAHGHLEIVEVLLKNGADVNAVDAIGFTPLHLAAFIGHLEIAEVLLKHGADVNAQDKFGKTAFDISIGNGNEDLAEILQKLNSGSGSGKPGQASGSELARKLLEASTKLQRLNIRLAEALLEAIARLQELNLELVYLAVELTDPKRIRDEIKEVKDKSKEIIRRAEKEIDDAAKESEKILEEAREAISGSGSELAKLLLKAIAETQDLNLRAAKAFLEAAAKLQELNIRAVELLVKLTDPATIREALEHAKRRSKEIIDEAERAIRAAKRESERIIEEARRLIEKGSGSGSELARELLRAHAQLQRLNLELLRELLRALAQLQELNLDLLRLASELTDEIWIAQELRRIGDEFNAYYADAERLIREAAAASEKISREAERLSR |
| 8.4 nM | Her2_Cage_I269S (Tuned Cage targeted to Her2 by DARPin (I269S)) (designed binder) MGSHHHHHHGSGSENLYFQGSGGSDLGKKLLEAARAGQDDEVRILMANGADVNAKDEYGLTPLYLATAHGHLEIVEVLLKNGADVNAVDAIGFTPLHLAAFIGHLEIAEVLLKHGADVNAQDKFGKTAFDISIGNGNEDLAEILQKLNSGSGSGKPGQASGSELARKLLEASTKLQRLNIRLAEALLEAIARLQELNLELVYLAVELTDPKRIRDEIKEVKDKSKEIIRRAEKEIDDAAKESEKILEEAREAISGSGSELAKLLLKAIAETQDLNLRAAKAFLEAAAKLQELNIRAVELLVKLTDPATIREALEHAKRRSKEIIDEAERAIRAAKRESERIIEEARRLIEKGSGSGSELARELLRAHAQLQRLNLELLRELLRALAQLQELNLDLLRLASELTDEIWIAQELRRIGDEFNAYYADAERLSREAAAASEKISREAERLIR |
| 63 nM | Her2_Cage (Original Cage targeted to Her2 by DARPin) (designed binder) MGSHHHHHHGSGSENLYFQGSGGSDLGKKLLEAARAGQDDEVRILMANGADVNAKDEYGLTPLYLATAHGHLEIVEVLLKNGADVNAVDAIGFTPLHLAAFIGHLEIAEVLLKHGADVNAQDKFGKTAFDISIGNGNEDLAEILQKLNSGSGSGKPGQASGSELARKLLEASTKLQRLNIRLAEALLEAIARLQELNLELVYLAVELTDPKRIRDEIKEVKDKSKEIIRRAEKEIDDAAKESEKILEEAREAISGSGSELAKLLLKAIAETQDLNLRAAKAFLEAAAKLQELNIRAVELLVKLTDPATIREALEHAKRRSKEIIDEAERAIRAAKRESERIIEEARRLIEKGSGSGSELARELLRAHAQLQRLNLELLRELLRALAQLQELNLDLLRLASELTDEIWIAQELRRIGDEFNAYYADAERLIREAAAASEKISREAERLIR |
| 12 nM | Her2_Cage_I287A (Tuned Cage targeted to Her2 by DARPin (I287A)) (designed binder) MGSHHHHHHGSGSENLYFQGSGGSDLGKKLLEAARAGQDDEVRILMANGADVNAKDEYGLTPLYLATAHGHLEIVEVLLKNGADVNAVDAIGFTPLHLAAFIGHLEIAEVLLKHGADVNAQDKFGKTAFDISIGNGNEDLAEILQKLNSGSGSGKPGQASGSELARKLLEASTKLQRLNIRLAEALLEAIARLQELNLELVYLAVELTDPKRIRDEIKEVKDKSKEIIRRAEKEIDDAAKESEKILEEAREAISGSGSELAKLLLKAIAETQDLNLRAAKAFLEAAAKLQELNIRAVELLVKLTDPATIREALEHAKRRSKEIIDEAERAIRAAKRESERIIEEARRLIEKGSGSGSELARELLRAHAQLQRLNLELLRELLRALAQLQELNLDLLRLASELTDEIWIAQELRRIGDEFNAYYADAERLIREAAAASEKISREAERLAR |
